Measured values reported in CN111434683A.
“And” between values parts separate entries of the source, which are not always exact repeats. Equal values may be shown once.

Tests used:
[1] = molecular target: H7N9病毒的HA蛋白(购自ACROBiosystems) (H7N9 influenza virus); experiment: ELISA, negative control on coated HA
[2] = molecular target: H7N9病毒 A/Anhui/1/2013 (H7N9 influenza virus A/Anhui/1/2013); experiment: cell-based or functional assay
[3] = molecular target: H7N9病毒的HA蛋白(购自ACROBiosystems) (H7N9 influenza virus)
[4] = molecular target: H7N9病毒的HA蛋白(购自ACROBiosystems) (H7N9 influenza virus); experiment: ELISA, supernatant of transfected 293F cells on coated HA

## 阴性对照
[1]
  450nm: 0.0675 OD450 and 0.0554 OD450

B1: 抗H7N9全人源单克隆抗体8D11 (antibody, V domains shown)
VH: QVQLVESGAEVKKPGASVKVSCKASGYIFFTSYDINWVRQATGQGLEWMGWMNPDSGDTGFAQKFQGRVTMTRNTSITTAYMELSSLTSEDTAVYYCATGNADCSGGSCYNWFDPWGQGTLVTVSS
VL: SSELTQDPAVSVALGQTVRITCQGDRLRSYTYASWYQQKPGQAPVLVIYGKNNRPSGIPDRFSGSSSGNTASLTITGAQAEDEADYYCNSRTSGYHLVFGGGTKLTVLV
[2]
  IC50 (微量中和-ELISA, MDCK细胞): 0.89 mg/L
[3]
  Kd: 8.3 nM
[4]
  450nm: 0.956 OD450 and 0.981 OD450 and 0.742 OD450
